From PMC6384864, “Identification of a Novel Specific Cucurbitadienol Synthase Allele in Siraitia grosvenorii Correlates with High Catalytic Efficiency” (Molecules, 2019) come the findings set out here.

Data set [1] has as its system T1, CC(C)=CCC/C(C)=C/CC/C(C)=C/CC/C=C(\C)CC/C=C(\C)CC[C@@H]1OC1(C)C.
T1 construct: full length, 759 residues; yeast codon-optimised in pCEV-G4-Km, S. cerevisiae BY4742, no tag told
Kind of data set: GC-MS of reaction product, yeast homogenate (Methods; Results text says purified variants). The note with it: 30 °C, pH 7.0, 100 mM sodium phosphate, 0.1% Triton X-100, allele 50R573L. Format: biochemical, Siraitia grosvenorii. From the text:
GC-MS of reaction product, yeast homogenate (Methods; Results text says purified variants) on SgCS (cucurbitadienol synthase, wild type 50R573L)

The test system is the same in data set [2]. The description is as above. Conditions: 30 °C, pH 7.0, 100 mM sodium phosphate, 0.1% Triton X-100, natural allele 50C573L. Format: biochemical, Siraitia grosvenorii.

SgCS (cucurbitadienol synthase, wild type 50R573L) (Siraitia grosvenorii; R50C), sequence (chain, as listed by the source R50C): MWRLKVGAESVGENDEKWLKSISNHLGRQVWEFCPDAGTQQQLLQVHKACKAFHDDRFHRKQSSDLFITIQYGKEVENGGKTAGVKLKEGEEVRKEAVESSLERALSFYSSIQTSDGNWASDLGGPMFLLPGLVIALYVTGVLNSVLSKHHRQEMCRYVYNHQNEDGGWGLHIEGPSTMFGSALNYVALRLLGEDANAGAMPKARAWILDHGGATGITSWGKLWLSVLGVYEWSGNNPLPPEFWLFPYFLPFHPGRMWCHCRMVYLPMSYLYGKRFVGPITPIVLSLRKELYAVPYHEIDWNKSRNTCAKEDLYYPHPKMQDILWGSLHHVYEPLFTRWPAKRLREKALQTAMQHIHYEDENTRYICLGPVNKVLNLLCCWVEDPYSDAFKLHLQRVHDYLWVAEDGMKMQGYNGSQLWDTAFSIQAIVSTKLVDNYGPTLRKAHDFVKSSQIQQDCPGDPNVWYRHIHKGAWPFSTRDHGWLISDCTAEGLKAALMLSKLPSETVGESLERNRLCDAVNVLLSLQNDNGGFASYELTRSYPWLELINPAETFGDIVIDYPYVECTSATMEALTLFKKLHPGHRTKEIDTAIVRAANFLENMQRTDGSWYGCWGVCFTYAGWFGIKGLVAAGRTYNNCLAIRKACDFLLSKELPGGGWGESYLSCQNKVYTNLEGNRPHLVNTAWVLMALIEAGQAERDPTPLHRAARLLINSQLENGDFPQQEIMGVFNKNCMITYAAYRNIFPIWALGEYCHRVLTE
SgCS (cucurbitadienol synthase, wild type 50R573L) (Siraitia grosvenorii), sequence (chain, as listed by the source): as the sequence (chain, as listed by the source R50C) above, with C50R counted along it

Regarding “SgCS (cucurbitadienol synthase, wild type 50R573L) (Siraitia grosvenorii)”, in data set [1], the Km is 0.29 µM, the kcat was determined as 0.0147 s⁻¹ and the kcat/Km was 49700 M⁻¹ s⁻¹.

As for “SgCS (cucurbitadienol synthase, wild type 50R573L) (Siraitia grosvenorii; R50C)”, in data set [2], the Km turned out to be 0.32 µM, the kcat stood at 0.0128 s⁻¹ and the specificity constant (kcat/Km) is 40200 M⁻¹ s⁻¹.

A word on the Km: it is the concentration of substrate that gives half-maximal velocity. Usually kcat stands for the number of substrate molecules converted per active site and unit of time at saturation. The term kcat/Km denotes the turnover number divided by the Michaelis constant.
